Reference: patent US20230084099A1 (NATIONAL UNIVERSITY CORPORATION TOKAI NATIONAL HIGHER …, published 2023)
Changes are numbered by the printed parent chain.

B1: ADC27-7 (other, DAR 2.4)
VH: EVQLVESGGSLVQPGGSLKLSCVASGYTFSKYWMDWVRQTPGKSLEWIGEINTDGSKTNYAPSIKDRFTISRDNAKSTLYLQMSNVKSDDTAIYYCTNWEDYWGQGVMVTVSS
VL: DVVMTQTPPSLSVAIGQSVSISCKSSQSLVYSDGKTYLHWLLQSSGRSPKRLIYQVSNLDSGVPDRFSGTGSQKDFTLKISRVEAKDLGVYYCAQTTHFPYTFGAGTKLELK
modifications: MMAE drug-linker on cysteine thiols exposed by DTT reduction (positions not stated)
B2: 32-1 antibody (antibody, V domains shown)
VH: VQLQQSGGDLVKPGGSLKLSCAASGFTFSSYGMSWVRQTPDKRLEWVATISSGGSYTYYPDSVKGRFTISRDNAKNTLYLQMSSLKSEDTAMYYCVIDYDVMDYWGQGTSVTVSS
VL: DIVMTQTPSSLAVSAGEKVTMSCKSSQSLLNSRTRKNYLAWYQQKPGQSPKLLIYWASTRESGVPDRFTGSGSGTDFTLTISSVQAEDLAVYYCKQSYNLRTFGGGTKLEIK
notes: Mouse hybridoma monoclonal antibody; used as hybridoma culture supernatant; also called clone 32-1
B3: 27-7 antibody (antibody, V domains shown)
VH: B1 VH
VL: B1 VL
notes: Rat hybridoma monoclonal antibody; used as hybridoma culture supernatant; also called clone 27-7
B4: 34-4 antibody (antibody, V domains shown)
VH: QVQLMESGPGLVQPSQTLSLTCTVSGFSLTSYDMHWVRQPPGKGLEWMGVIWGNGNTHYNSALKSRLSISRDTSKSQVFLKMNSLQTENTAIYFCTGGYFYWGQGVTVTVSS
VL: DVVMTQTPVSLSVAIGHPASISCKSSQSLVGTGGKTYLSWLLQRPGQSPKRLIYLVSKLDSGIPDRFSGSGSETDFTLKISRVEADDLGVYYCLQGTHFPFTFGSGTQLEMK
notes: Rat hybridoma monoclonal antibody; used as hybridoma culture supernatant; also called clone 34-4
B5: 35-9 antibody (antibody, V domains shown)
VH: QVQLTESGPGLVQPSQTLSLTCTVSGFSLSSYGVIWVRQPPGKGLEWMGVIWGNGNTNYNSTLKSRLSISRDTSKSQVFLKMNILQTEDTAMYFCARWESGDYWGQGVTVTVSS
VL: DVVMTQTPVSLSVAVGQPASISCTSSQSLVGSGGKTYLNWFLQRPGQSPKRLISLVSKLDSGIPDRFSGSGSETDFTLKISRVEADDLGVYYCLQGTHFPWTFGGGTKQELK
notes: Rat hybridoma monoclonal antibody; used as hybridoma culture supernatant; also called clone 35-9
B6: 27-8 antibody (antibody, V domains shown)
VH: VQLTESGPGLVKPSQSLSLTCSVTGYTITSGYDWSWIRKFPGNKMEWMGYITYSGSTNYNPSLKSRISITRDTSKNQFFLQLNSVTTEDTATYYCSRDIAAISFAYWGQGTLVTVSS
VL: DVVMTQTPVAQPVTLGDQASISCRSSQSLVHSNGNTYLEWYLQKPGQSPQLLIYKVSNRFSGVPDRFIGSGSGSDFTLKISRVEPEDLGVYYCFQATHVPLTFGSGTKLEIK
notes: Rat hybridoma monoclonal antibody; used as hybridoma culture supernatant; also called clone 27-8
B7: 46-3 antibody (antibody, V domains shown)
VH: VQLKESGPGLVKPSQSLSLTCSVTGYTITSGYDWSWIRKFPGNKMEWMGFITYSGSTHHNPSLKSRISITRDTSRNQFFLQLNSVTTEDSATYYCARDFSGISFAYWGQGTLVSVSS
VL: B6 VL with M4L, A19V, V90I, V99D
notes: Rat hybridoma monoclonal antibody; used as hybridoma culture supernatant; also called clone 46-3
B8: 11-8 antibody (antibody, V domains shown)
VH: VQLQESGPELVKPGASVKISCKASGYSFTDYIILWVKQSHGKSLEWIGNINPYSGNTRYNLKFKGKATLTVDKSSSTAYMQLNSLTSEDSAVYYCARDGDDYAMDYWGQGTSVTVSS
VL: DIVITQTPLSLPVSLGDQASISCRSSQSIVHSNGNTYLEWYLQKPGQSPRLLIYKVSNRFSGVPDRFSGSGSGTDFTLKISRVETEDLGVYYCFQGSHVPWTFGGGTKLEIK
notes: Mouse hybridoma monoclonal antibody; used as hybridoma culture supernatant; also called clone 11-8

Target: T1, human MEFLIN expressed on cells (human, UniProt O14498 19-428)
T1 sequence (looked up): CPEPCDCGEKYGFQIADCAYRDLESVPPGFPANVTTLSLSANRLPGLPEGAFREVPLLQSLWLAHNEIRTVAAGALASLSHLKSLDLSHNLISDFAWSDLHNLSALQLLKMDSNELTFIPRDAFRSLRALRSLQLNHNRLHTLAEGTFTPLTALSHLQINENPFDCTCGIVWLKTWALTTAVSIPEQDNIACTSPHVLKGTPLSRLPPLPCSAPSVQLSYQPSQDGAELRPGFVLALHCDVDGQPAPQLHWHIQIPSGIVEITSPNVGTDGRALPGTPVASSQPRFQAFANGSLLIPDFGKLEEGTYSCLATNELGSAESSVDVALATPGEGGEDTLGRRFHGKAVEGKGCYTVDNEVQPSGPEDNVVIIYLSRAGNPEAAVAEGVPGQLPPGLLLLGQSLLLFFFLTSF
Assay: cell-based or functional assay

Binder | EC50 of cell proliferation inhibition (MTT test) [pM]
B1 | 720

Target: T2, human MEFLIN protein (human, UniProt O14498 19-428, limits assumed)
T2 construct: In the Western blot the protein and its fragments carried a C-terminal G196 tag and His tag and were expressed in HEK293 cells; also called hMEFLIN; ISLR
T2 sequence (looked up): T1 sequence (looked up)
Assay: Western blotting on tagged human MEFLIN fragments
Procedure: The human embryonic kidney (HEK293) cell line was allowed to transiently express pRP-CMV vector having an insert of DNA encoding the human MEFLIN protein or a fragment thereof by lipofection, and a cell lysate was prepared. […] SDS-PAGE was performed using the cell lysate, and the electrophoresed protein was transferred to a PVDF membrane. The PVDF membrane was reacted at ordinary temperature for 1 hour using 5% skimmed milk/PBS. The primary antibody used was a culture supernatant of each hybridoma clone diluted 50-fold with PBS. For a positive subject, an anti-G196 antibody was used as a primary antibody. The PVDF membrane was reacted overnight at 4° C. in the presence of the primary antibody. Then, the PVDF membrane was washed with 0.05% Tween/PBS. The secondary antibody used was an anti-rat or anti-mouse antibody-horseradish peroxidase (HRP) conjugate. The secondary antibody was diluted 1000-fold with PBS and reacted with the PVDF membrane at ordinary temperature for 45 minutes. After washing with 0.05% Tween/PBS, the HRP label on the antibody was allowed to emit light using ECL (GE Healthcare Japan Corp.), and an image was captured into a computer using a CCD imager (Las 4000, GE Healthcare Japan Corp.).

Binder | binding result
B2 | binds
B3 | binds
B4 | binds
B5 | binds
B6 | binds
B7 | binds
B8 | binds
